Measurements taken from publication PMC5247666, “The Production and Utilization of GDP-glucose in the Biosynthesis of Trehalose 6-Phosphate by Streptomyces venezuelae*” (The Journal of Biological Chemistry, 2016).

What was measured:
SVEN_3027 = target: T1, SVEN_3027 (Streptomyces venezuelae, UniProt F2R7M8); test: stopped coupled assay of pyrophosphate (inorganic pyrophosphatase, malachite green); format: biochemical; settings: glucose 1-phosphate as co-substrate
T1 construct: synthetic gene, E. coli BL21(DE3)pLysS

[1] = target: Streptomyces venezuelae OtsA (trehalose-6-phosphate synthase) (Streptomyces venezuelae); test: SEC; Superdex 200 10/300 GL calibrated with size standards; 20 mM HEPES pH 7.0, 10 mM MgCl2, 100 mM NaCl; size of the self-associated form
[2] = substrate: Nc1nc2c(ncn2[C@@H]2O[C@H](COP(=O)(O)OP(=O)(O)O[C@H]3O[C@H](CO)[C@@H](O)[C@H](O)[C@H]3O)[C@@H](O)[C@H]2O)c(=O)[nH]1; test: continuous coupled assay of NDP release (pyruvate kinase/lactate dehydrogenase); format: biochemical, Streptomyces venezuelae; settings: glucose 6-phosphate 5 mM fixed
Text: (§1) continuous coupled assay of NDP release (pyruvate kinase/lactate dehydrogenase) on S. venezuelae OtsA

[3] = substrate: Nc1ncnc2c1ncn2[C@@H]1O[C@H](COP(=O)(O)OP(=O)(O)O[C@H]2O[C@H](CO)[C@@H](O)[C@H](O)[C@H]2O)[C@@H](O)[C@H]1O; test: as above; format: biochemical, Streptomyces venezuelae; settings: glucose 6-phosphate 5 mM fixed
Text: as §1

[4] = target: the molecule itself; test: SEC; Superdex 200 16/600; 50 mM MOPS pH 8.0, 0.025 mM EDTA, 5% (w/v) sucrose; size of the self-associated form
[5] = substrate: O=P(O)(O)O[C@H]1O[C@H](CO)[C@@H](O)[C@H](O)[C@@H]1O; test: stopped coupled assay of pyrophosphate (inorganic pyrophosphatase, malachite green); format: biochemical, Streptomyces venezuelae; settings: ITP 1 mM fixed
Text: (§2) stopped coupled assay of pyrophosphate (inorganic pyrophosphatase, malachite green) on SVEN_3972

[6] = substrate: O=P(O)(O)O[C@H]1O[C@H](CO)[C@@H](O)[C@H](O)[C@H]1O; test: as above; format: biochemical, Streptomyces venezuelae; settings: GTP 2 mM fixed
Text: as §2

[7] = substrate: O=P(O)(O)OP(=O)(O)OP(=O)(O)OC[C@H]1O[C@@H](n2cnc3c(O)ncnc32)[C@H](O)[C@@H]1O; test: as above; format: biochemical, Streptomyces venezuelae; settings: mannose 1-phosphate 2 mM fixed
Text: as §2

[8] = substrate: Nc1nc2c(ncn2[C@@H]2O[C@H](COP(=O)(O)OP(=O)(O)OP(=O)(O)O)[C@@H](O)[C@H]2O)c(=O)[nH]1; test: as above; format: biochemical, Streptomyces venezuelae; settings: mannose 1-phosphate 2 mM fixed
Text: as §2

[9] = substrate: O=P(O)(O)O[C@H]1O[C@H](CO)[C@@H](O)[C@H](O)[C@@H]1O; test: as above; format: biochemical, Streptomyces venezuelae; settings: GTP 0.3 mM fixed
Text: (§3) stopped coupled assay of pyrophosphate (inorganic pyrophosphatase, malachite green) on SVEN_2781

[10] = substrate: O=P(O)(O)O[C@H]1O[C@H](CO)[C@@H](O)[C@H](O)[C@H]1O; test: as above; format: biochemical, Streptomyces venezuelae; settings: GTP 0.3 mM fixed
Text: as §3

[11] = substrate: Nc1nc2c(ncn2[C@@H]2O[C@H](COP(=O)(O)OP(=O)(O)OP(=O)(O)O)[C@@H](O)[C@H]2O)c(=O)[nH]1; test: as above; format: biochemical, Streptomyces venezuelae; settings: glucose 1-phosphate 1 mM fixed
Text: as §3

T1 sequence (F2R7M8 entry or part of it): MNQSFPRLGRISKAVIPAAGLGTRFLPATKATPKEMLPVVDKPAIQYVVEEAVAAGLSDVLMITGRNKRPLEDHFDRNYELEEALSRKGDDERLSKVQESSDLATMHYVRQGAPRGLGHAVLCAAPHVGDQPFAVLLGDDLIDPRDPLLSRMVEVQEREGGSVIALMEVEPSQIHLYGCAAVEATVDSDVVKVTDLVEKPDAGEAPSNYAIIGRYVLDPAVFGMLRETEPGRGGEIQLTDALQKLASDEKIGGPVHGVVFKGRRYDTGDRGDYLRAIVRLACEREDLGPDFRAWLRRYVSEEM

Molecule: Cc1cn([C@H]2C[C@H](O)[C@@H](COP(=O)(O)OP(=O)(O)OP(=O)(O)O)O2)c(=O)[nH]c1=O [dTTP]
- stopped coupled assay of pyrophosphate (inorganic pyrophosphatase, malachite gre) (SVEN_3027): donor substrate preference was UTP > dTTP ≫ CTP > GTP > ATP > ITP

Molecule: Streptomyces venezuelae OtsA (trehalose-6-phosphate synthase) (enzyme)
- stoichiometry N [1]: 2

Molecule: O=c1ccn([C@@H]2O[C@H](COP(=O)(O)OP(=O)(O)OP(=O)(O)O)[C@@H](O)[C@H]2O)c(=O)[nH]1 [UTP]
- stopped coupled assay of pyrophosphate (inorganic pyrophosphatase, malachite gre) (SVEN_3027): donor substrate preference was UTP > dTTP ≫ CTP > GTP > ATP > ITP

B1: S. venezuelae OtsA (Streptomyces venezuelae ATCC 10712) (protein)
chain: MASVLVASNRGPVSYVRGEDGELDARRGGGGLVSGLSAVSSQDSLWVCAALGEGDREAVRRGIGEPGVRMLDIAPDVYADAYNGIANSVLWFLHHHLYDIPREPVFDAAFRHRWEAYRAYNRAFAEALAAAADEGAAVLVQDYHLALVPGQLRELRPDLRIGHFTHTPWASPEYFRMLPADIGDELLRGMLGADELGFHTSAWASAFLSCAGGEQPRTRVRVHPLGVDAEELRALAHRPQVDERLARLREEVGDRKTIVRVDRTELSKNILRGLLAYRELLTVHPEWRDRVVHLASAYPSRQDLAAYRAYTASVTELAAEINAEFGTADWQPVLVSVEDDFTRSLAAYRLADVALVNPVRDGMNLVAKEIPVVSDAGCALVLSTGAGAYEELKEDALTVHPYDVSETAEALHTALTMPPPERADRTKRLASAATALPPQRWFLNQLEGLSDA
notes: synthetic gene, E. coli SoluBL21; 51 kDa with tag; homodimer (109 kDa by SEC)
- Km [2]: 120 ± 20 µM
- kcat [2]: 139 ± 8 s⁻¹
- kcat/Km [2]: 1.14e+06 ± 223000 M⁻¹ s⁻¹
- Km [3]: 440 ± 50 µM
- kcat [3]: 29 ± 1 s⁻¹
- kcat/Km [3]: 67000 ± 7000 M⁻¹ s⁻¹

B2: Streptomyces venezuelae SVEN_3972 (ITP-mannose pyrophosphorylase) (enzyme, UniProt F2RFV6 1-238, looked up)
chain: MHTSPTQAVVLAGGQGSRLRPYTDDRPKPMVEIPGTGTPIIGHQLSWLAAEGVTDAVVSCGHLAEVLQEWLEGADLPLKVTTVVETEPLGRGGGLKYAAAHLPAPDQPWYATNGDIWTRFSLREMAAFHDERDALATLALARPRIPWGAVETDTFGHITDFIEAPPSPFLINAGVYVFSAAFTELLPDLGDHERTTFPRLARERRLAGFPLPQGAYWRAIDTAKDLTEAAKELAAQRG
notes: The His6 tag can be cleaved by TEV protease; also called SVEN15_3882
- stoichiometry N [4]: 2
- Km [5]: 860 ± 80 µM
- kcat [5]: 0.0119 ± 0.0004 s⁻¹
- kcat/Km [5]: 14 ± 1 M⁻¹ s⁻¹
- Km [6]: 7100 ± 800 µM
- kcat [6]: 0.014 ± 0.001 s⁻¹
- kcat/Km [6]: 2 ± 0.3 M⁻¹ s⁻¹
- Km [7]: 170 ± 20 µM
- kcat [7]: 0.049 ± 0.001 s⁻¹
- kcat/Km [7]: 300 ± 30 M⁻¹ s⁻¹
- Km [8]: 470 ± 30 µM
- kcat [8]: 0.0156 ± 0.0004 s⁻¹
- kcat/Km [8]: 33 ± 2 M⁻¹ s⁻¹

B3: SVEN_2781 (Streptomyces venezuelae ATCC 10712) (protein)
chain: MTEAILLVGGKGTRLRPLTVNTPKPMVPAAGVPFLTHQLARARAAGVEHIVLATSYLAEVFEPHFGDGSSLGLSLEYVTEEEPLGTGGAIRNVASRLHSGPDDPVLIFNGDILTGLDIQALVATHSSSGADVSLHLTRVEDPRAFGLVPTDATGRVTAFLEKPQTPEEIVTDQINAGAYVFRRSVIDTIPAGRPVSVERETFPDLLASGAHLQGMVDSTYWLDLGTPQAFVRGSADLVLGRAPSPAVPGRCGDRLVLPSARVAPDAKLTGGTVVGADAVVGDGARITGSTLLAGAVVEPGAVITDSLIGAGARIGARSVLTGAVIGDGAQVGPDNELRDGVRVWCDATLPAGAVRFSSDQ
notes: synthetic gene, E. coli BL21(DE3); active form dimer
- Km [9]: 2700 ± 300 µM
- kcat [9]: 0.167 ± 0.008 s⁻¹
- kcat/Km [9]: 60 ± 10 M⁻¹ s⁻¹
- Km [10]: 1400 ± 100 µM
- kcat [10]: 0.171 ± 0.004 s⁻¹
- kcat/Km [10]: 120 ± 10 M⁻¹ s⁻¹
- Km [11]: 260 ± 20 µM
- kcat [11]: 0.159 ± 0.002 s⁻¹
- kcat/Km [11]: 610 ± 40 M⁻¹ s⁻¹
